# Measured values from PMC314469, “Protein Interaction Networks by Proteome Peptide Scanning” (PLoS Biology, 2004).
# Molecular target: T1, amphyphisin SH3 (AMPH_HUMAN), P49418
# T1 chain: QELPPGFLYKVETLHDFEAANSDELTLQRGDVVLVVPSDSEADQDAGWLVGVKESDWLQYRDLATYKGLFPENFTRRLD
# Experiment: SPOT array
row,Binder,"normalised SPOT signal, Boehringer light units (BLU); mean over the file's lines of this peptide"
1,DEEKPKRPTRRRRK [O94885 688-701],23100
2,DGDPLKRPLLGIVQ [O75060 326-339],18.7
3,DKADLIRPKRKYEK [Q9H2F5 327-340],417
4,DEAQLSRPKKSSDR [O60481 257-270],51.5
5,DAYSFKRPDRSKMN [P13611 342-355],543
6,DKSPPPRPPTSPYP [O14607 862-876],83.4
7,DDILINRPAKKHLE [Q9H9F8 116-129],7.5
8,ASLPPPRPQRPVTK [Q9NQE0 197-210],9900
9,DDLEIVRPARRRTP [Q15598 3286-3299],189
10,SWGGPWRPPPPGFW [Q8TC90 86-100],43.7
11,DSSKLRRPLKRNRI [Q9NVG6 7-20],111
12,DAQEIIRPRRSKYF [Q9HCG2 115-128],723
13,DDSVILRPSKSVKL [Q9Y2R2 666-679],119
14,DGVSLSRPGRTADS [P39191 408-421],200
15,DANRLRRPGGSYPA [Q14767 49-62],24.8
16,DEGSLRRPGRLTST [Q96ML9 142-155],81.1
17,AAESPGRPPPTAAE [Q9UPS7 514-528],22
18,DIPEPRRPVVEQAL [O15031 1306-1319],37.2
19,DKKSPTRPKRHAKP [Q99710 3-16],4130
20,DGRLLYRPNKAGET [Q9ULH0 399-412],20
21,DEARLRRPPRPSSD [Q9Y2H9 828-841],2750

row,Binder,"normalised SPOT signal, Boehringer light units (BLU); mean over the file's lines of this peptide"
1,DGKDPRRPKRPRTI [O60663 189-202],3740
2,DFPKPKKPPPPAKA [Q9Y5K6 333-347],33
3,ADVDPQRPPRPEVK [Q9ULR6 191-204],2760
4,DKSPPPRPPSSPYP [O15550 915-929],58.2
5,DKIPFKRPSTYGVP [O95444 394-407],35.1
6,DESSPRRPDYLKGL [Q99698 2220-2233],23.9
7,DEPEPPRPRRGSLR [O43157 1891-1904],3590
8,DESRIRRPMNAFMV [P35713 81-94],69.5
9,DELEPRRPRYRVPD [Q14697 104-117],35.4
10,DGEMFMRPGKLFDY [P08574 161-174],117
11,DGSFLARPSKSNPG [Q06124 26-39],96.2
12,DDEPPARPPPPPPA [Q9NQC3 135-149],37.6
13,DIKPLKRPRDEDDA [P11387 132-145],37.9
14,DIPGPTRPPGQVLS [AAH30713 119-133],75
15,DGKFLLRPRKEQGT [P43403 184-197],424
16,DFYEPRRPEDDDPT [Q96IE0 67-80],0
17,DADPLKRPTFKQIV [P10721 908-921],39.9
18,DGRTPLRPSRNTKQ [Q9H0H1 56-69],14900
19,ADAEPGRPKKRAHS [Q9P2P0 592-605],120
20,DEVWFKRPDGSKSK [Q9BRI4 246-259],30
21,AEEPLHRPKKELSA [P42858 83-96],134

# Molecular target: endophilin SH3 (SH3G2_HUMAN), Q99962
# Experiment: SPOT array
row,Binder,"normalised SPOT signal, Boehringer light units (BLU); mean over the file's lines of this peptide"
1,DEEKPKRPTRRRRK [O94885 688-701],959
2,DGDPLKRPLLGIVQ [O75060 326-339],41.8
3,DKADLIRPKRKYEK [Q9H2F5 327-340],64.3
4,DEAQLSRPKKSSDR [O60481 257-270],76.4
5,DAYSFKRPDRSKMN [P13611 342-355],45.4
6,DKSPPPRPPTSPYP [O14607 862-876],4530
7,DDILINRPAKKHLE [Q9H9F8 116-129],127
8,ASLPPPRPQRPVTK [Q9NQE0 197-210],5900
9,DDLEIVRPARRRTP [Q15598 3286-3299],67.6
10,SWGGPWRPPPPGFW [Q8TC90 86-100],1290
11,DSSKLRRPLKRNRI [Q9NVG6 7-20],167
12,DAQEIIRPRRSKYF [Q9HCG2 115-128],165
13,DDSVILRPSKSVKL [Q9Y2R2 666-679],167
14,DGVSLSRPGRTADS [P39191 408-421],113
15,DANRLRRPGGSYPA [Q14767 49-62],59.6
16,DEGSLRRPGRLTST [Q96ML9 142-155],28.2
17,AAESPGRPPPTAAE [Q9UPS7 514-528],51.1
18,DIPEPRRPVVEQAL [O15031 1306-1319],41.3
19,DKKSPTRPKRHAKP [Q99710 3-16],658
20,DGRLLYRPNKAGET [Q9ULH0 399-412],44.6
21,DEARLRRPPRPSSD [Q9Y2H9 828-841],172

row,Binder,"normalised SPOT signal, Boehringer light units (BLU); mean over the file's lines of this peptide"
1,DGKDPRRPKRPRTI [O60663 189-202],85
2,DFPKPKKPPPPAKA [Q9Y5K6 333-347],8340
3,ADVDPQRPPRPEVK [Q9ULR6 191-204],125
4,DKSPPPRPPSSPYP [O15550 915-929],4090
5,DKIPFKRPSTYGVP [O95444 394-407],67.7
6,DESSPRRPDYLKGL [Q99698 2220-2233],28
7,DEPEPPRPRRGSLR [O43157 1891-1904],126
8,DESRIRRPMNAFMV [P35713 81-94],94.4
9,DELEPRRPRYRVPD [Q14697 104-117],26.4
10,DGEMFMRPGKLFDY [P08574 161-174],72.5
11,DGSFLARPSKSNPG [Q06124 26-39],36.7
12,DDEPPARPPPPPPA [Q9NQC3 135-149],54.3
13,DIKPLKRPRDEDDA [P11387 132-145],0
14,DIPGPTRPPGQVLS [AAH30713 119-133],85.2
15,DGKFLLRPRKEQGT [P43403 184-197],130
16,DFYEPRRPEDDDPT [Q96IE0 67-80],50.1
17,DADPLKRPTFKQIV [P10721 908-921],19.8
18,DGRTPLRPSRNTKQ [Q9H0H1 56-69],287
19,ADAEPGRPKKRAHS [Q9P2P0 592-605],48.3
20,DEVWFKRPDGSKSK [Q9BRI4 246-259],60.8
21,AEEPLHRPKKELSA [P42858 83-96],70.2
